Experimental data: patent publication US20050013820A1 (REGENTS OF THE UNIVERSITY OF MICHIGAN, published 2005)
Each block holds one binder with its values, some of them ahead of it.

What was measured:
[1] = molecular target: T1, cell surface calreticulin on human fibroblastoid M1 cells (human, UniProt P27797 18-417); experiment: cell-based or functional assay
T1 sequence (looked up): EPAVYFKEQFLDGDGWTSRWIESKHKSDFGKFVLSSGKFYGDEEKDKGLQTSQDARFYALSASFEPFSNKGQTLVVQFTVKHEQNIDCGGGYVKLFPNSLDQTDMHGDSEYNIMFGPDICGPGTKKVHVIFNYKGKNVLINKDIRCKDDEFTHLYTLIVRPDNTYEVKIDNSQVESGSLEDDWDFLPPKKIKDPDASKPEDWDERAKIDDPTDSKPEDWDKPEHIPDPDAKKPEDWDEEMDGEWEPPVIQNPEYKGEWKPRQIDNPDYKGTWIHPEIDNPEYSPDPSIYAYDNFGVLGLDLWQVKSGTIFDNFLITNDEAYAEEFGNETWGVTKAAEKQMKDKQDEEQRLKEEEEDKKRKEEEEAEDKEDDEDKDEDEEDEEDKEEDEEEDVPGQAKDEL

[2] = molecular target: T2, recombinant human calreticulin (human, UniProt P27797 18-417); experiment: SPR (Biacore 2000), calreticulin immobilized on CM5
T2 construct: Expressed in E. coli as a GST fusion; also called Crt; purified recombinant calreticulin
T2 sequence: T1 sequence (looked up)
Method: Prior to use, biosensor chips CM5 were docked into a Biacore® 2000 and preconditioned in water at 100 μl/min by applying two consecutive 20-μl pulses of 50 mM NaOH, then 10 mM HCl, and finally 0.1% SDS. […] Immobilizations were conducted at 25° C. in HBS-EP (10 mM HEPES, pH7.4, 150 mM NaCl, 1 mM EDTA, 0.005% Surfactant P-20), with a flow of 10 μl/min. The CM5 surface was activated by 7 min injection of 200 mM EDC/50 mM NHS to prepare a high-capacity surface, with manual injection of 100 μg/ml calreticulin until 5500 RU level was approached. Then 100 μl of 1M ethanolamine was used to block remaining activated group.
Calreticulin and peptide binding were performed at 25° C. in binding buffer (10 mM HEPES, pH8.0, 50 mM KCl, 0.5 mM CaCl₂, 1% Triton-X100), with a flow rate of 10 μl/min. […] Binding assays were repeated at least 3 times. Kinetic analysis was performed using Kinetic separate kₐ/kd fitting in BIA evaluation 3.0 software.

- inhibition of NO induction by Sepharose bead-bound 65-79*0401 in M1 cells; IC50 [1]: ~35 µM
Binder: DKCLA [pentapeptide DKCLA]

- binding result [2]: no binding
Binder: QKRAE (Synthetic pentapeptide) [pentapeptide QKRAE]

- inhibition of cAMP-mediated (2CA-induced) DNA repair induction in cells; IC50 [1]: ~0.25 µM
Binder: KDLLEQKRAAVDTY [peptide 65-78*0401]
